Reference: patent publication US20070141652

Key:
[1] = target: purified wild-type Xenopus TPX2 (GST tag removed)
[2] = target: ΔNTPX2 (Xenopus TPX2 with amino acid 1 to 40 deleted, GST tag removed)

B1: Xenopus Aurora A kinase (AurA, also called Eg2), endogenous in egg extracts (protein)
chain: MERAVKENHKPSNVKIFHPMTEGAKRIPVNQPQSTQFRPPGTAVSAQRILGPSNVPQRVLAQAQKPILSSQKPTTQIPLRPATQGHQSSKPQGPNENRNPQQTSHSSTPNVEKKGSTDQGKTSAVPKEEGKKKQWCLEDFEIGRPLGKGKFGNVYLARERESKFILALKVLFKSQLEKAGVEHQLRREVEIQSHLRHPNILRLYGYFHDASRVYLILDYAPGGELFRELQKCTRFDDQRSAMYIKQLAEALLYCHSKKVIHRDIKPENLLLGSNGELKIADFGWSVHAPSSRRTTLCGTLDYLPPEMIEGRMHDETVDLWSLGVLCYEFLVGKPPFETDTHQETYRRISKVEFQYPPYVSEEARDLVSKLLKHNPNHRLPLKGVLEHPWIIKNSQLKKKDEPLPGAQ
AurA activation, as determined by autophosphorylation of the activation loop at threonine 295 of AurA with antibody recognizing phospho-T295 [1]: RanGTP-induced AurA activation in TPX2-depleted egg extracts could be rescued by adding purified wild-type TPX2
AurA activation, as determined by autophosphorylation of the activation loop at threonine 295 of AurA with antibody recognizing phospho-T295 [2]: AurA activation was either completely lacking or slightly enhanced compared to the TPX2-depleted egg extract
